# Earlier results as cited in paper PMC7143316.
# What was measured:
# Kv1.3 (Homo sapiens) = Kv1.3 (Homo sapiens) (UniProt P22001)
# Kv1.1 (Homo sapiens) = Kv1.1 (Homo sapiens) (UniProt Q09470)
# Kv1.2 (Homo sapiens) = Kv1.2 (Homo sapiens) (UniProt P16389)
# UniProt P16389, sequence (P16389 whole entry): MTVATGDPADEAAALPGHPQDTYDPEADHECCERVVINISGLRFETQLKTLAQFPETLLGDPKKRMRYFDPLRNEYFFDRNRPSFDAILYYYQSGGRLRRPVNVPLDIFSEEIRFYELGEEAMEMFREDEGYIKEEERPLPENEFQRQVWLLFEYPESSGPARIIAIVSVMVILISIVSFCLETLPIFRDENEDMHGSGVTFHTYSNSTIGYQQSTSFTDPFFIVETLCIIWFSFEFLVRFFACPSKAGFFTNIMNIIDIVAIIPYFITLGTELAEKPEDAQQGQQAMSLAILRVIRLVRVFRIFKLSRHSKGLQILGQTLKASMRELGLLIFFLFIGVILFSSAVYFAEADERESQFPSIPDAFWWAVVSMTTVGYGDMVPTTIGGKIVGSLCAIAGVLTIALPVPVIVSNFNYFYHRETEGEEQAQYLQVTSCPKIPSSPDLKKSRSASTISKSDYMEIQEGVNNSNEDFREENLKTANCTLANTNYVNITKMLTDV
# UniProt Q09470, sequence (Q09470 whole entry): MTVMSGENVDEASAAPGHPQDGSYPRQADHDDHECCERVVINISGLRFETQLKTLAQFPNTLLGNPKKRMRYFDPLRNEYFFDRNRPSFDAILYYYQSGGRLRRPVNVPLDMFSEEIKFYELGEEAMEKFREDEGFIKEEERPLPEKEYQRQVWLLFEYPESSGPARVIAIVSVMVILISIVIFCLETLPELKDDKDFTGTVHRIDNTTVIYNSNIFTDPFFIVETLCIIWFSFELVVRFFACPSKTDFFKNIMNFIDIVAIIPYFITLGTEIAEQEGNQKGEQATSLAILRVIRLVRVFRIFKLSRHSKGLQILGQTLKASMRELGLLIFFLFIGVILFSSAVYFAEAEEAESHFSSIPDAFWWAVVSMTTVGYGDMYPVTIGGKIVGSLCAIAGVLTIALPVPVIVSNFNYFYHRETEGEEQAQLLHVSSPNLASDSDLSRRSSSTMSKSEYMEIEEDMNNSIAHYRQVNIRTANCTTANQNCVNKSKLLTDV
# UniProt P22001, sequence (P22001 whole entry): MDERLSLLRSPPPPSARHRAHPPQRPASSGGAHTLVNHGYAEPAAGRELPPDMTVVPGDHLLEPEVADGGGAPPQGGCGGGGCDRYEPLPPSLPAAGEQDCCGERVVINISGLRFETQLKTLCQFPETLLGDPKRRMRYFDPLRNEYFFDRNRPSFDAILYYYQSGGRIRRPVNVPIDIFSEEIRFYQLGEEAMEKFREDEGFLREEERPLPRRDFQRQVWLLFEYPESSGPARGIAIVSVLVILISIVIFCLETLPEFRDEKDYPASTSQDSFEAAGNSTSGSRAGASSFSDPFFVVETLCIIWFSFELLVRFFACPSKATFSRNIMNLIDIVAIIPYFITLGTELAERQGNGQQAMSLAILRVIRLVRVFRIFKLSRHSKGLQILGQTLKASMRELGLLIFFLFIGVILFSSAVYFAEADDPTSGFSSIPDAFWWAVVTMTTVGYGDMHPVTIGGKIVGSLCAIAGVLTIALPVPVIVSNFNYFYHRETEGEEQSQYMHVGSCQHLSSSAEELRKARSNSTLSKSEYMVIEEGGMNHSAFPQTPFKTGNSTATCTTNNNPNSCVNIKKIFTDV
substance,measurement,setting,value
BgK (from UniProt P29186),Kd,Kv1.3 (Homo sapiens),0.01 µM
same,Kd,Kv1.1 (Homo sapiens),0.006 µM
same,Kd,Kv1.2 (Homo sapiens),0.015 µM
